# Numbering of substitutions follows the chain as printed.
# B1: ABL-CD3-41 (antibody, V domains shown)
# VH: EVQLVESGGGLVKPGGSLRLSCAASGFTFSSYSMNWVRQAPGKGLEWVSSVNSRGSYIYYADSVKGRFTISRDNAKDSLYLQMNSLRADDTAVYYCARDRRELLLDYWGQGTLVTVSS
# VL: SYELTQPPSVSVSPGQTARITCSGDALPKKYAYWYQQKSGQAPVLVIYEDSKRPSGIPERFSGSSSGTMATLTISGAQVEDEADYYCYSTDSSGNHCWVFGGGTKLTVL
# notes: Chimeric hybridoma mAb: human V, CH1, upper hinge; mouse middle hinge, CH2, CH3
# B2: ABL-CD3-59 (antibody, V domains shown)
# VH: EVQLVESGGGLVKPGGSLRLSCTASGFTLSSYSMNWVRQAPGKGLEWVSSLSRSSNYIYYAVSVKGRFTISRDNAKNSLYLQMNSLRAEDTAVYYCARERWELLYFDYWGQGTLVTVSS
# VL: NFMLTQPHSVSESPGKTVTISCTRSSGSIASNYVQWYQQRPGSSPTTVIYEDNQRPSGVPDRFSGSIDSSSNSASLTISGLQTEDEADYYCQSYDNSIRVFGGGTKLTVL
# notes: as for B1
# B3: ABL-CD3-57 (antibody, V domains shown)
# VH: EVQLVESGGGLVKPGGSLRLSCAASGFTFSSYTMNWVRQAPGKGLEWVSSISTSSRYIYYTDSVKGRFTISRDDAKNSLYLQMNSLRAEDTAVYYCTRNWGYDVFDIWGQGTMVIVSS
# VL: QPVLTQPSSHSASSGASVRLTCMLSSGFSVGDFWIRWYQQKPGNPPRYLLYYHSDSNKGQGSGVPSRFSGSNDASANAGILRISGLQPEDEADYYCGTWHSNSKTQVFGGGTKLTVL
# notes: as for B1
# B4: CD3 × CD33-BspAb65 (bispecific antibody)
# scFv-Fc: NFMLTQPHSVSESPGKTVTIACTRSSGSIASNYVQWYQQRPGSSPTTVIYEDNQRPSGVPDRFSGSIDSSSNSASLTISGLKTEDEADYYCQSYDSSNQVFGCGTKLTVLGGGGSGGGGSGGGGSGGGGSQVTLKESGPGILQPSQTLSLTCSFSGFSLSTFGMGVGWIRQPSGKCLEWLAHIWWDDDKYYNPALKSRLTISKDTSKNQVFLKIANVDTADTATYYCARLGYYPYWFFDVWGTGTTVTVSSGGGGSDKTHTCPPCPAPEFEGGPSVFLFPPKPKDTLMISRTPEVTCVVVDVSHEDPEVKFNWYVDGVEVHNAKTKPREEQYNSTYRVVSVLTVLHQDWLNGKEYKCKVSNKALPASIEKTISKAKGQPREPQVYTLPPCREEMTKNQVSLWCLVKGFYPSDIAVEWESNGQPENNYKTTPPVLDSDGSFFLYSKLTVDKSRWQQGNVFSCSVMHEALHNHYTQKSLSLSPGK
# heavy: EVQLVQSGAEVKKPGSSVKVSCKASGYTITDSNIHWVRQAPGQSLEWIGYIYPYNGGTDYNQKFKNRATLTVDNPTNTAYMELSSLRSEDTAFYYCVNGNPWLAYWGQGTLVTVSSASTKGPSVFPLAPSSKSTSGGTAALGCLVKDYFPEPVTVSWNSGALTSGVHTFPAVLQSSGLYSLSSVVTVPSSSLGTQTYICNVNHKPSNTKVDKRVEPKSCDKTHTCPPCPAPEFEGGPSVFLFPPKPKDTLMISRTPEVTCVVVDVSHEDPEVKFNWYVDGVEVHNAKTKPREEQYNSTYRVVSVLTVLHQDWLNGKEYKCKVSNKALPASIEKTISKAKGQPREPQVCTLPPSREEMTKNQVSLSCAVKGFYPSDIAVEWESNGQPENNYKTTPPVLDSDGSFFLVSKLTVDKSRWQQGNVFSCSVMHEALHNRFTQKSLSLSPGK
# light: DIQLTQSPSTLSASVGDRVTITCRASESLDNYGIRFLTWFQQKPGKAPKLLMYAASNQGSGVPSRFSGSGSGTEFTLTISSLQPDDFATYYCQQTKEVPWSFGQGTKVEVKRTVAAPSVFIFPPSDEQLKSGTASVVCLLNNFYPREAKVQWKVDNALQSGNSQESVTEQDSKDSTYSLSSTLTLSKADYEKHKVYACEVTHQGLSSPVTKSFNRGEC
# B5: ABL-CD3-34 (antibody, V domains shown)
# VH: EVHLVESGGGLVKPGGSLRLSCAASGFTFSRYSMNWVRQAPGKGLEWVSSISRSSSYIYYADSVKGRFTISRDNAKNSLYLQMNSLRAEDTAVYYCAREPRTLGMDYWGQGILVTVSS
# VL: B2 VL with Q82K, N96S, I98N
# notes: as for B1
# B6: ABL-CD3-62 (antibody, V domains shown)
# VH: EVQLVESGGGLVKPGGSLRLSCAASGFTFSSYSMNWVRQAPGKGLEWVSSISRSSGYIFYADSVKGRFTISRDNAKNSLYLQMNSLRAEDTAVYYCVRERVGAGFDYWGQGTLVTVSS
# VL: B2 VL with T19A, T47A, S75F, Q82K, N96S, I98N
# notes: as for B1
# B7: ABL-CD3-51 (antibody, V domains shown)
# VH: B2 VH with T23A, L29F, L51I, N56S, V62D
# VL: B2 VL with Q82K, N96S, I98N
# notes: as for B1
# B8: ABL-CD3-52 (antibody, V domains shown)
# VH: EVQLVESGGGLVKPGGSLRLSCAASGFTFSYYSMNWVRQAPGKGLEWVSSISRSTTYIYYADSVKGRFTISRDNAKNSLYLQMNSLRAEDTAVYYCARDGKGAIFLDYWGQGTLVTVSS
# VL: SYELTQPPSVSVSPGQTARITCSGDALPKKYAYWYQQKSGQAPVLVIYEDSKRPSGIPERFSGSSSGTMATLTISGAQVEDEADYYCYSTDSSGNHRVFGGGTKLTVL
# notes: as for B1
# B9: ABL-CD3-63 (antibody, V domains shown)
# VH: QVQLQESGPGLVKPSETLSLTCTVSGGSISSYYWSWIRQPAGKGLEWIGRIYTSGSTKYNPSLKSRVTMSVDTSKNQFSLKLISVTAADTAVYFCARERIRDLYFDYWGQGTLVTVSS
# VL: B2 VL with S25T, Q82K, D88A, N96R, I98N
# notes: as for B1
# Target: T1, recombinant human CD3 epsilon/delta heterodimer (human, UniProt P07766 23-126; P04234 22-105)
# T1 construct: Recombinant protein in solution (200-50 nM) in the Octet assay; also called hCD3 E/D; human CD3E/D
# T1 sequence (P07766 23-126, stated change not applied, chain 1 of 2): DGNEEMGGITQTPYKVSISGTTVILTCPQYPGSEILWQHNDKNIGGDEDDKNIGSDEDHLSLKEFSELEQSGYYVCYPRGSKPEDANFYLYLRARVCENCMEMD
# T1 sequence (P04234 22-105, stated change not applied, chain 2 of 2): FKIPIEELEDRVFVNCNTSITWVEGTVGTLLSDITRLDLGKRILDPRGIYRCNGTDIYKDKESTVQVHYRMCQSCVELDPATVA
# Assay: Octet BLI, mAb on FAB2G sensor, hCD3 E/D 200-50 nM; R^2 1.00
Binder,Kd,Response,koff,kon
B1,85 nM,0.34,0.0395 s⁻¹,464000 M⁻¹ s⁻¹
B2,12.7 nM,0.81,0.00105 s⁻¹,83100 M⁻¹ s⁻¹

# Target: T2, recombinant human CD3 epsilon/gamma heterodimer (human, UniProt P07766 23-126; P09693 23-116)
# T2 construct: Recombinant protein in solution (200-50 nM) in the Octet assay; also called hCD3 E/G
# T2 sequence (P07766 23-126, chain 1 of 2): as the sequence (P07766 23-126, stated change not applied, chain 1 of 2) above
# T2 sequence (P09693 23-116, chain 2 of 2): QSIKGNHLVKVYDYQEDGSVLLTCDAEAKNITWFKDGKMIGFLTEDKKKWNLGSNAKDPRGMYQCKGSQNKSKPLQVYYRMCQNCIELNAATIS
# Assay: Octet BLI, mAb on FAB2G sensor, hCD3 E/G 200-50 nM; R^2 0.99
Binder,Kd,Response,koff,kon
B1,295 nM,0.1,0.25 s⁻¹,846000 M⁻¹ s⁻¹
B3,3.97 nM,0.54,0.00026 s⁻¹,65400 M⁻¹ s⁻¹
B2,43.3 nM,0.58,0.00487 s⁻¹,113000 M⁻¹ s⁻¹

# Target: T3, CD33 on KILR-HL60 cells (UniProt P20138 18-364, limits assumed)
# T3 construct: whole, on cells; Target of the gemtuzumab arm; also called CD33 expressing cells
# T3 sequence (P20138 18-364 limits assumed): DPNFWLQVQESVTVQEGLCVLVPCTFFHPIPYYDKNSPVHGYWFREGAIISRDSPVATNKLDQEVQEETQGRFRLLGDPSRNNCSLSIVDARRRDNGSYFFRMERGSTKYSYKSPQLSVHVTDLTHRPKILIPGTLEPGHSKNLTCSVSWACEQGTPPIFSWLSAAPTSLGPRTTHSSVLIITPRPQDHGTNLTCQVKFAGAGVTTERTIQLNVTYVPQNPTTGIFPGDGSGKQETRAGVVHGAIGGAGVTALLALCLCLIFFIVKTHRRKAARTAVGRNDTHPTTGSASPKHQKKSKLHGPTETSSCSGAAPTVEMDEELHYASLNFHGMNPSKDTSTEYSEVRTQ
# Assay: flow cytometry on KILR-HL60 (CD33 expressing) cells, antibody at 10 ug/ml
row,Binder,flow cytometry signal
1,B4,605000

# Target: T1, recombinant human CD3 epsilon/delta …
# Assay: Octet BLI, mAb on FAB2G sensor, hCD3 E/D 200-50 nM; R^2 0.98;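 also: antibodies purified from hybridoma supernatants, measured by Octet binding to recombinant human CD3 protein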
# Description: (§1) Samples were evaluated by flow cytometry analysis against Jurkat and human Pan-T cells (FIG. 1B) as well as by Octet against recombinant human CD3 proteins to evaluate apparent affinities and binding off-rates (Table 6, infra).
Binder,Kd,Response,koff,kon
B3,4.29 nM,0.49,0.000277 s⁻¹,64700 M⁻¹ s⁻¹
B5,9.01 nM,0.93,0.00211 s⁻¹,234000 M⁻¹ s⁻¹
B6,34 nM,0.56,0.00765 s⁻¹,225000 M⁻¹ s⁻¹
B7,77.1 nM,0.21,0.0188 s⁻¹,244000 M⁻¹ s⁻¹
B8,54 nM,0.35,0.0202 s⁻¹,373000 M⁻¹ s⁻¹

# Target: T3, CD33 on KILR-HL60 cells
# Assay: flow cytometry on KILR-HL60 (CD33 expressing) cells, antibody at 1 ug/ml
row,Binder,flow cytometry signal
1,B4,533000

# Target: T2, recombinant human CD3 epsilon/gamma …
# Assay: Octet BLI, mAb on FAB2G sensor, hCD3 E/G 200-50 nM; R^2 0.98
# Description: as §1
Binder,Kd,Response,koff,kon
B5,9.82 nM,0.89,0.00196 s⁻¹,199000 M⁻¹ s⁻¹
B6,23.8 nM,0.69,0.00391 s⁻¹,164000 M⁻¹ s⁻¹
B9,90.4 nM,0.34,0.0182 s⁻¹,202000 M⁻¹ s⁻¹
B7,233 nM,0.06,0.163 s⁻¹,699000 M⁻¹ s⁻¹
B8,233 nM,0.14,0.115 s⁻¹,495000 M⁻¹ s⁻¹

# Target: T1, recombinant human CD3 epsilon/delta …
# Assay: Octet BLI, mAb on FAB2G sensor, hCD3 E/D 200-50 nM; R^2 0.99
Binder,Kd,Response,koff,kon
B9,11.5 nM,0.89,0.00145 s⁻¹,127000 M⁻¹ s⁻¹

# Source: patent publication US20260167721A1 (ABLEXIS, published 2026)
